The record followed here is the RNAGym collection of RNA variant scans (doi:10.7554/elife.80360).

B1: HDV Ribozyme (parent)
chain: GGCCGGCAUGGUCCCAGCCUCCUCGCUGGCGCCGGCUGGGCAACAUUCCGAGGGGACCGUCCCCUCGGUAAUGGCGAAUGGGACCCA

The variants in this data set derive from B1. Nature of the data set: self-cleavage, relative activity (ratio to wild type); higher = more cleavage; co-transcriptional.
G53A G54A: the self-cleavage came out at 0.896.
Take U65G U79C: the self-cleavage turned out to be 0.19.
With G11U C48A the figure was 0.423.
With G28A A83U the figure was 0.0308; with G11U C33A, 0.0604; with C3U A56U, 0.861.
Then A45C G55U, with 0.525; and G11A C15A, with 0.108.
Consider G35A C64G, for which the self-cleavage was 0.31.
With G52U G81A the figure was 0.356; with G17C A87C, 0.354; with U12G C58U, 0.751.
With G1A C15U the figure was 0.0665; with G67C A70G, 0.712.
Then U9A U47G, with 0.772.
Take A42C A77C: the self-cleavage amounted to 0.161.
With C32U C64A, the self-cleavage was 0.831.
With C22U G50C the figure was 0.671; with U20G C64U, 0.291; with C57A G76C, 1.05.
As for A45C C61A, the self-cleavage was determined as 0.671.
Then C4A G39U, with 0.14; and C13A G53C, with 0.133.
With C24A G55U the figure was 0.908; with C14U U47A, 0.906; with G5U G52C, 0.475.
With A43U U47G the figure was 0.361.
Regarding C14U G81U, the self-cleavage is 0.729.
With C19A G67U the figure was 0.281; with G38U A51C, 0.246.
Then C4G C58A, with 0.429; and A8U A43G, with 0.578; and G53U G76U, with 0.939.
Then G34U A51U, with 0.169; and G17A A45C, with 0.415; and U20G G67C, with 0.554.
In the case of C15A A16C, the self-cleavage amounted to 0.415.
With G31U G82C the figure was 0.136; with A8U G40A, 0.892.
Then C41G A51G, with 0.499.
Then U37C, with 1.03; and C3A C64A, with 0.564; and U12C A16C, with 0.302.
Consider C18U G35C, for which the self-cleavage was determined as 0.119.
Then G11A G53C, with 0.372; and G35C U47G, with 0.0923; and A56U G68C, with 0.872.
With U47G C75A the figure was 0.107; with G38U C85A, 0.205; with G11U G28A, 0.0219.
Then C15U C61G, with 0.898; and G35A C85U, with 0.541.
As to U9A C21U, the self-cleavage is 0.155.
With A45U G67C the figure was 0.719; with G34A C85G, 0.0978.
Then G29A G40U, with 0.0831; and C15G G40U, with 0.354.
Then C41A G82C, with 0.289; and G2C U65G, with 0.0264.
On to G17A C75G, for which the self-cleavage is 0.0773.
For the variant C36G G67C, the self-cleavage was 0.148.
In the case of G80A C84A, the self-cleavage was found to be 0.58.
In the case of U46C C75U, the self-cleavage was found to be 0.0755.
Then G17C G81A, with 0.0978; and A45U U46C, with 0.665; and G5A C63G, with 0.0755.
Then C14U C24A, with 0.76.
Then U27A C49G, with 0.617; and C26U G40U, with 1.03.
With U27C G73U, the self-cleavage came to 0.0449.
With C30U G59A the figure was 0.878.
With U60C G81A the figure was 0.604.
With C33G U72C the figure was 0.115.
With A51U C84A, the self-cleavage turned out to be 0.916.
Then C41U U60C, with 0.906.
Then C21A C36A, with 0.117.
Regarding G25A G68C, the self-cleavage was 0.253.
With G52C G53U, the self-cleavage was 0.782.
With G5C U72C the figure was 0.123; with G6U G40C, 0.193; with C3A C62A, 0.511.
Then C19A G55U, with 0.0923.
For the variant C26U G68U, the self-cleavage came out at 1.13.
Then G29C C36A, with 0.0297; and C18G G59C, with 0.26; and G54U A70G, with 1.03.
A45C C63G: the self-cleavage stood at 0.427.
Then G25A G55C, with 0.191; and G11A C32G, with 0.0683.
Then U27C C61G, with 0.795; and C13A C58G, with 0.0639; and C7A C44U, with 0.0723.
With C41G A70U the figure was 0.746; with G6A U79C, 0.128; with C24A U46G, 0.554.
Turning to G31C G73C, the self-cleavage was found to be 0.155.
U27C G53A: the self-cleavage was 0.696.
Then A16G U46A, with 0.646; and C18U C41U, with 0.49; and U12G U23G, with 0.256.
As to G6C A42G, the self-cleavage was found to be 0.
Regarding U20G U72A, the self-cleavage came to 0.0875.
With U23A G76C the figure was 1.1; with G52U C62G, 0.106.
With C33U G35C the figure was 0.237; with U12A G82A, 0.0489; with C26G C85U, 0.956.
Then C7U C33G, with 0.0536; and C15G U23A, with 0.68; and G17C C84G, with 0.18.
With G28A G74A, the self-cleavage turned out to be 0.131.
In the case of A8G U46G, the self-cleavage worked out at 0.623.
With G52U G74U the figure was 0.629; with A16G C41U, 1.22; with U12G C21U, 0.123.
With C21U G81A the figure was 0.0978; with C18G C44G, 0.0723; with C14G C62A, 0.437.
U27C U72C: the self-cleavage worked out at 0.166.
Then G50C G74U, with 0.292; and G39C G80U, with 0.101; and C33A C84G, with 0.219.
Take A51C C61U: the self-cleavage turned out to be 0.914.
With U37C C48U, the self-cleavage came to 1.14.
With G2C C24U the figure was 0.0405; with C3G A78C, 0.134; with A43C C57U, 0.491.
For G28C C58U, the self-cleavage turned out to be 0.0369.
Then G74U C75A, with 0.228; and G73U A77U, with 0.0811; and G1U C61U, with 0.377.
With C61A G68C the figure was 0.873; with C22G U46G, 0.0875; with G29A G76A, 0.328.
As to C21G A71U, the self-cleavage amounted to 0.
Then G35U U60G, with 0.285.
With G39A U60G the figure was 0.404.
As for C33A G55A, the self-cleavage is 0.159.
Then G53A G76C, with 1.08; and C30A U79G, with 0.256; and C44G A87U, with 0.675.
With U9G A77G the figure was 0.767; with A16G C33U, 0.802; with G5U C49A, 0.415.
Then G54C G76C, with 0.981.
As for C7G A77G, the self-cleavage was found to be 0.0755.
With G38C U79C the figure was 0.0264.
With U69A A70G the figure was 0.98.
Then U23A C61A, with 1.03.
As for G1U G73U, the self-cleavage is 0.422.
With G52U G68A the figure was 0.517; with G10U C30G, 0.0989.
With C15A G40C the figure was 0.0875; with A42C C86A, 0.312; with U37G A56G, 0.0665.
With G29C C64A the figure was 0.0755; with C33A C41A, 0.0845; with C24U G68U, 0.891.
Regarding U60G U72C, the self-cleavage was found to be 0.489.
With U20C C32G the figure was 0.138.
Then G59C C62A, with 0.87; and G1C A78U, with 0.0755; and C4A G40C, with 0.0511.
Then U9C G54C, with 1.11.
As for A16G A45C, the self-cleavage was 0.506.
With U12C G39U the figure was 0.0723; with A51G G82U, 0.203.
